biological target: CD3 (target of the Pool 1 CD3.23 screen); assay: Octet, crude lysate
Sequence (P07766 23-126): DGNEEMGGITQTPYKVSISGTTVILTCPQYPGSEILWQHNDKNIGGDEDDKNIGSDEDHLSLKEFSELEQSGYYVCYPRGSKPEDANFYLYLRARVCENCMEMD

Row | Binder | Kd [nM]
1 | CD3.75 (AC3404) (bispecific antibody, V domains shown) VH: EVQLLESGGGIVQPGGSLKLSCAASGFTFNTYAMNWVRQAPGKGLEWVARIRSKWNNYATYYADSVKDRFTISRDDSKNTVYLQMNNLKTEDTAVYYCVRHENFGNSYVSWFAHWGQGTLVTVSS VL: ELVVTQEPSLTVSPGGTVTLTCRSSNGAVTSSNYANWVQQKPGQAPRGLIGGTNKRAPGTPARFSGSLLGGKAALTLSGVQPEDEAVYYCALWYPNLWVFGGGTKLTVL | 10.5
2 | CD3.83 (AC3412) (bispecific antibody, V domains shown) VH: EVQLLESGGGIVQPGGSLKLSCAASGFTFNTYAMNWVRQAPGKGLEWVARIRSKYNNYGTYYADSVKDRFTISRDDSKNTVYLQMNNLKTEDTAVYYCVRHENFGNSYVSWFAHWGQGTLVTVSS VL: ELVVTQEPSLTVSPGGTVTLTCRSSNGAVTSSNYANWVQQKPGQAPRGLIGGTNKRAPGTPARFSGSLLGGKAALTLSGVQPEDEAVYYCALWYPNLWVFGGGTKLTVL | 8.2
3 | CD3.89 (AC3418) (bispecific antibody, V domains shown) VH: EVQLLESGGGIVQPGGSLKLSCAASGFTFNTYAMNWVRQAPGKGLEWVARIRSKYNNYATYEADSVKDRFTISRDDSKNTVYLQMNNLKTEDTAVYYCVRHENFGNSYVSWFAHWGQGTLVTVSS VL: ELVVTQEPSLTVSPGGTVTLTCRSSNGAVTSSNYANWVQQKPGQAPRGLIGGTNKRAPGTPARFSGSLLGGKAALTLSGVQPEDEAVYYCALWYPNLWVFGGGTKLTVL | 9.7
4 | CD3.93 (AC3422) (bispecific antibody, V domains shown) VH: EVQLLESGGGIVQPGGSLKLSCAASGFTFNTYAMNWVRQAPGKGLEWVARIRSKYNNYATYYKDSVKDRFTISRDDSKNTVYLQMNNLKTEDTAVYYCVRHENFGNSYVSWFAHWGQGTLVTVSS VL: ELVVTQEPSLTVSPGGTVTLTCRSSNGAVTSSNYANWVQQKPGQAPRGLIGGTNKRAPGTPARFSGSLLGGKAALTLSGVQPEDEAVYYCALWYPNLWVFGGGTKLTVL | 8
5 | CD3.86 (AC3415) (bispecific antibody, V domains shown) VH: EVQLLESGGGIVQPGGSLKLSCAASGFTFNTYAMNWVRQAPGKGLEWVARIRSKYNNYATEYADSVKDRFTISRDDSKNTVYLQMNNLKTEDTAVYYCVRHENFGNSYVSWFAHWGQGTLVTVSS VL: ELVVTQEPSLTVSPGGTVTLTCRSSNGAVTSSNYANWVQQKPGQAPRGLIGGTNKRAPGTPARFSGSLLGGKAALTLSGVQPEDEAVYYCALWYPNLWVFGGGTKLTVL | 183
6 | CD3.81 (AC3410) (bispecific antibody, V domains shown) VH: EVQLLESGGGIVQPGGSLKLSCAASGFTFNTYAMNWVRQAPGKGLEWVARIRSKYNNFATYYADSVKDRFTISRDDSKNTVYLQMNNLKTEDTAVYYCVRHENFGNSYVSWFAHWGQGTLVTVSS VL: ELVVTQEPSLTVSPGGTVTLTCRSSNGAVTSSNYANWVQQKPGQAPRGLIGGTNKRAPGTPARFSGSLLGGKAALTLSGVQPEDEAVYYCALWYPNLWVFGGGTKLTVL | 6.1
7 | CD3.91 (AC3420) (bispecific antibody, V domains shown) VH: EVQLLESGGGIVQPGGSLKLSCAASGFTFNTYAMNWVRQAPGKGLEWVARIRSKYNNYATYGADSVKDRFTISRDDSKNTVYLQMNNLKTEDTAVYYCVRHENFGNSYVSWFAHWGQGTLVTVSS VL: ELVVTQEPSLTVSPGGTVTLTCRSSNGAVTSSNYANWVQQKPGQAPRGLIGGTNKRAPGTPARFSGSLLGGKAALTLSGVQPEDEAVYYCALWYPNLWVFGGGTKLTVL | 8.3
8 | CD3.96 (AC3425) (bispecific antibody, V domains shown) VH: EVQLLESGGGIVQPGGSLKLSCAASGFTFNTYAMNWVRQAPGKGLEWVARIRSKYNNYATYYADSVKDRFTISRDDSKNTVDLQMNNLKTEDTAVYYCVRHENFGNSYVSWFAHWGQGTLVTVSS VL: ELVVTQEPSLTVSPGGTVTLTCRSSNGAVTSSNYANWVQQKPGQAPRGLIGGTNKRAPGTPARFSGSLLGGKAALTLSGVQPEDEAVYYCALWYPNLWVFGGGTKLTVL | 9.8
9 | CD3.88 (AC3417) (bispecific antibody, V domains shown) VH: EVQLLESGGGIVQPGGSLKLSCAASGFTFNTYAMNWVRQAPGKGLEWVARIRSKYNNYATYDADSVKDRFTISRDDSKNTVYLQMNNLKTEDTAVYYCVRHENFGNSYVSWFAHWGQGTLVTVSS VL: ELVVTQEPSLTVSPGGTVTLTCRSSNGAVTSSNYANWVQQKPGQAPRGLIGGTNKRAPGTPARFSGSLLGGKAALTLSGVQPEDEAVYYCALWYPNLWVFGGGTKLTVL | 63.2
10 | CD3.78 (AC3407) (bispecific antibody, V domains shown) VH: EVQLLESGGGIVQPGGSLKLSCAASGFTFNTYAMNWVRQAPGKGLEWVARIRSKYNDYATYYADSVKDRFTISRDDSKNTVYLQMNNLKTEDTAVYYCVRHENFGNSYVSWFAHWGQGTLVTVSS VL: ELVVTQEPSLTVSPGGTVTLTCRSSNGAVTSSNYANWVQQKPGQAPRGLIGGTNKRAPGTPARFSGSLLGGKAALTLSGVQPEDEAVYYCALWYPNLWVFGGGTKLTVL | 7.4
11 | CD3.95 (AC3424) (bispecific antibody, V domains shown) VH: EVQLLESGGGIVQPGGSLKLSCAASGFTFNTYAMNWVRQAPGKGLEWVARIRSKYNNYATYYADSVKGRFTISRDDSKNTVYLQMNNLKTEDTAVYYCVRHENFGNSYVSWFAHWGQGTLVTVSS VL: ELVVTQEPSLTVSPGGTVTLTCRSSNGAVTSSNYANWVQQKPGQAPRGLIGGTNKRAPGTPARFSGSLLGGKAALTLSGVQPEDEAVYYCALWYPNLWVFGGGTKLTVL | 5.4
12 | CD3.87 (AC3416) (bispecific antibody, V domains shown) VH: EVQLLESGGGIVQPGGSLKLSCAASGFTFNTYAMNWVRQAPGKGLEWVARIRSKYNNYATTYADSVKDRFTISRDDSKNTVYLQMNNLKTEDTAVYYCVRHENFGNSYVSWFAHWGQGTLVTVSS VL: ELVVTQEPSLTVSPGGTVTLTCRSSNGAVTSSNYANWVQQKPGQAPRGLIGGTNKRAPGTPARFSGSLLGGKAALTLSGVQPEDEAVYYCALWYPNLWVFGGGTKLTVL | 17.9
13 | CD3.85 (AC3414) (bispecific antibody, V domains shown) VH: EVQLLESGGGIVQPGGSLKLSCAASGFTFNTYAMNWVRQAPGKGLEWVARIRSKYNNYATDYADSVKDRFTISRDDSKNTVYLQMNNLKTEDTAVYYCVRHENFGNSYVSWFAHWGQGTLVTVSS VL: ELVVTQEPSLTVSPGGTVTLTCRSSNGAVTSSNYANWVQQKPGQAPRGLIGGTNKRAPGTPARFSGSLLGGKAALTLSGVQPEDEAVYYCALWYPNLWVFGGGTKLTVL | 939
14 | CD3.79 (AC3408) (bispecific antibody, V domains shown) VH: EVQLLESGGGIVQPGGSLKLSCAASGFTFNTYAMNWVRQAPGKGLEWVARIRSKYNEYATYYADSVKDRFTISRDDSKNTVYLQMNNLKTEDTAVYYCVRHENFGNSYVSWFAHWGQGTLVTVSS VL: ELVVTQEPSLTVSPGGTVTLTCRSSNGAVTSSNYANWVQQKPGQAPRGLIGGTNKRAPGTPARFSGSLLGGKAALTLSGVQPEDEAVYYCALWYPNLWVFGGGTKLTVL | 8.3
15 | CD3.92 (AC3421) (bispecific antibody, V domains shown) VH: EVQLLESGGGIVQPGGSLKLSCAASGFTFNTYAMNWVRQAPGKGLEWVARIRSKYNNYATYWADSVKDRFTISRDDSKNTVYLQMNNLKTEDTAVYYCVRHENFGNSYVSWFAHWGQGTLVTVSS VL: ELVVTQEPSLTVSPGGTVTLTCRSSNGAVTSSNYANWVQQKPGQAPRGLIGGTNKRAPGTPARFSGSLLGGKAALTLSGVQPEDEAVYYCALWYPNLWVFGGGTKLTVL | 37.2
16 | CD3.77 (AC3406) (bispecific antibody, V domains shown) VH: EVQLLESGGGIVQPGGSLKLSCAASGFTFNTYAMNWVRQAPGKGLEWVARIRSKYENYATYYADSVKDRFTISRDDSKNTVYLQMNNLKTEDTAVYYCVRHENFGNSYVSWFAHWGQGTLVTVSS VL: ELVVTQEPSLTVSPGGTVTLTCRSSNGAVTSSNYANWVQQKPGQAPRGLIGGTNKRAPGTPARFSGSLLGGKAALTLSGVQPEDEAVYYCALWYPNLWVFGGGTKLTVL | 575
17 | CD3.97 (AC3426) (bispecific antibody, V domains shown) VH: EVQLLESGGGIVQPGGSLKLSCAASGFTFNTYAMNWVRQAPGKGLEWVARIRSKYNNYATYYADSVKDRFTISRDDSKNTVGLQMNNLKTEDTAVYYCVRHENFGNSYVSWFAHWGQGTLVTVSS VL: ELVVTQEPSLTVSPGGTVTLTCRSSNGAVTSSNYANWVQQKPGQAPRGLIGGTNKRAPGTPARFSGSLLGGKAALTLSGVQPEDEAVYYCALWYPNLWVFGGGTKLTVL | 121
18 | CD3.82 (AC3411) (bispecific antibody, V domains shown) VH: EVQLLESGGGIVQPGGSLKLSCAASGFTFNTYAMNWVRQAPGKGLEWVARIRSKYNNWATYYADSVKDRFTISRDDSKNTVYLQMNNLKTEDTAVYYCVRHENFGNSYVSWFAHWGQGTLVTVSS VL: ELVVTQEPSLTVSPGGTVTLTCRSSNGAVTSSNYANWVQQKPGQAPRGLIGGTNKRAPGTPARFSGSLLGGKAALTLSGVQPEDEAVYYCALWYPNLWVFGGGTKLTVL | 7.8
19 | CD3.80 (AC3409) (bispecific antibody, V domains shown) VH: EVQLLESGGGIVQPGGSLKLSCAASGFTFNTYAMNWVRQAPGKGLEWVARIRSKYNNGATYYADSVKDRFTISRDDSKNTVYLQMNNLKTEDTAVYYCVRHENFGNSYVSWFAHWGQGTLVTVSS VL: ELVVTQEPSLTVSPGGTVTLTCRSSNGAVTSSNYANWVQQKPGQAPRGLIGGTNKRAPGTPARFSGSLLGGKAALTLSGVQPEDEAVYYCALWYPNLWVFGGGTKLTVL | 11.3
20 | CD3.94 (AC3423) (bispecific antibody, V domains shown) VH: EVQLLESGGGIVQPGGSLKLSCAASGFTFNTYAMNWVRQAPGKGLEWVARIRSKYNNYATYYPDSVKDRFTISRDDSKNTVYLQMNNLKTEDTAVYYCVRHENFGNSYVSWFAHWGQGTLVTVSS VL: ELVVTQEPSLTVSPGGTVTLTCRSSNGAVTSSNYANWVQQKPGQAPRGLIGGTNKRAPGTPARFSGSLLGGKAALTLSGVQPEDEAVYYCALWYPNLWVFGGGTKLTVL | 8.2
21 | CD3.90 (AC3419) (bispecific antibody, V domains shown) VH: EVQLLESGGGIVQPGGSLKLSCAASGFTFNTYAMNWVRQAPGKGLEWVARIRSKYNNYATYQADSVKDRFTISRDDSKNTVYLQMNNLKTEDTAVYYCVRHENFGNSYVSWFAHWGQGTLVTVSS VL: ELVVTQEPSLTVSPGGTVTLTCRSSNGAVTSSNYANWVQQKPGQAPRGLIGGTNKRAPGTPARFSGSLLGGKAALTLSGVQPEDEAVYYCALWYPNLWVFGGGTKLTVL | 7.2
22 | CD3.84 (AC3413) (bispecific antibody, V domains shown) VH: EVQLLESGGGIVQPGGSLKLSCAASGFTFNTYAMNWVRQAPGKGLEWVARIRSKYNNYTTYYADSVKDRFTISRDDSKNTVYLQMNNLKTEDTAVYYCVRHENFGNSYVSWFAHWGQGTLVTVSS VL: ELVVTQEPSLTVSPGGTVTLTCRSSNGAVTSSNYANWVQQKPGQAPRGLIGGTNKRAPGTPARFSGSLLGGKAALTLSGVQPEDEAVYYCALWYPNLWVFGGGTKLTVL | 10.7

Reference: patent US20250188184A1
